From patent US20060257406A1 (published 2006)
Substitutions are numbered along the chain they refer to. Where two headings read alike, the source gives them in different places. One block for each binder: values may come before it.

What was measured:
mouse serum albumin = target: T1, mouse serum albumin (mouse, UniProt P07724 25-608); test: capture ELISA: dAb on protein L, biotinylated MSA, streptavidin-HRP
T1 construct: biotinylated MSA (about 2 biotins per molecule) in the capture ELISA; also called MSA
Description: Two rounds of selection were performed on serum albumin using each of the libraries separately. For each selection, antigen was coated on immunotube (nunc) in 4 ml of PBS at a concentration of 100 μg/ml. In the first round of selection, each of the three libraries was panned separately against HSA (Sigma) and MSA (Sigma). In the second round of selection, phage from each of the six first round selections was panned against (i) the same antigen again (eg 1st round MSA, 2nd round MSA) and (ii) against the reciprocal antigen (eg 1st round MSA, 2nd round HSA) resulting in a total of twelve 2nd round selections. In each case, after the second round of selection 48 clones were tested for binding to HSA and MSA. Soluble dAb fragments were produced as described for scFv fragments by Harrison et al, Methods Enzymol. 1996; 267:83-109 and standard ELISA protocol was followed (Hoogenboom et al. (1991) Nucleic Acids Res., 19: 4133) except that 2% tween PBS was used as a blocking buffer and bound dabs were detected with either protein LHRP (Sigma) (for the Vκs) and protein A—HRP (Amersham Pharmacia Biotech) (for the VHs).
Next, the serum albumin binding dAbs were tested for their ability to capture biotinylated antigen from solution. ELISA protocol (as above) was followed except that ELISA plate was coated with 1 μg/ml protein L (for the Vκ clones) and 1 μg/ml protein A (for the VH clones). Soluble dAb was captured from solution as in the protocol and detection was with biotinylated MSA or HSA and streptavidin HRP. The biotinylated MSA and HSA had been prepared according to the manufacturer's instructions, with the aim of achieving an average of 2 biotins per serum albumin molecule. […] Next, the dAbs were tested for their ability to bind MSA coated on a CM5 biacore chip.

human TNFα [1] = target: T2, human TNFα (human, UniProt P01375 77-233); test: TNF receptor assay (ELISA): inhibition of TNF binding to plate-bound TNF receptor 1-Fc
T2 construct: also called TAR1; TNF alpha

human TNFα [2] = target: T2, human TNFα; test: as above; remark: listed apart in the source
human TNFα [3] = target: T2, human TNFα; test: as above; remark: listed apart in the source
human TNFα [4] = target: T2, human TNFα; test: as above; remark: listed apart in the source
human TNFα [5] = target: T2, human TNFα; test: cell-based or functional assay
human TNFα [6] = target: T2, human TNFα; test: TNF receptor assay (ELISA): inhibition of TNF binding to plate-bound TNF receptor 1-Fc; remark: listed apart in the source

T2 sequence (P01375 77-233 limits assumed): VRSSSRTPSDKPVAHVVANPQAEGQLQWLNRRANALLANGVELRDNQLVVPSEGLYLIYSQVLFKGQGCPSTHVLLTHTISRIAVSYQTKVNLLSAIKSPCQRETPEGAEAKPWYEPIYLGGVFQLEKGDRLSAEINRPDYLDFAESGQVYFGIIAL
T1 sequence (P07724 25-608 limits assumed): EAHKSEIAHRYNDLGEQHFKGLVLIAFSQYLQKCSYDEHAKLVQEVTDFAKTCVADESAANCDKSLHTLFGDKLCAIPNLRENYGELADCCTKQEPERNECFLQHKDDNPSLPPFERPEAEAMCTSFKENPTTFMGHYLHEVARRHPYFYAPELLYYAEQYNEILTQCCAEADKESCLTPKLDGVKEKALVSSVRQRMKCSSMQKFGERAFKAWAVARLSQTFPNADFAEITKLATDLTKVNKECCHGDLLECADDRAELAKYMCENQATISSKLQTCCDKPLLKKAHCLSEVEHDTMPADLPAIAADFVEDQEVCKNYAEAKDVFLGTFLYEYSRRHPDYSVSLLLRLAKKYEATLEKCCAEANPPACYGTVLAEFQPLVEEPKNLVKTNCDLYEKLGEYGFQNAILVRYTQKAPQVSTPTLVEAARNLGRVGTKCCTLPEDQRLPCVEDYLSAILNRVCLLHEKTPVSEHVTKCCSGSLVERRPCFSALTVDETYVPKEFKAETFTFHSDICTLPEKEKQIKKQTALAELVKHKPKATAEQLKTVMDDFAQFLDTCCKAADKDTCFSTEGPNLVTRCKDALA

B3: TAR1-5-19CH/dAb1 CK (Fab, V domains shown)
V domain 1: DIQMTQSPSSLSASVGDRVTITCRASQSIDSYLHWYQQKPGKAPKLLIYSASELQSGVPSRFSGSGSGTDFTLTISSLQPEDFATYYCQQVVWRPFTFGQGTKVEIK
V domain 2: B3 V domain 1 with D30Y, S31D, Y32A, H34E, S50T, E53R, V92M, W93Q, F96V
notes: also called TAR1-5-19CH d1CK
- IC50 (human TNFα [1]): ~6 nM

B7: TAR1-5-19CH/dAb3CK (Fab, V domains shown)
V domain 1: B3 V domain 1
V domain 2: DIQMTQSPSSLSASVGDRVTITCRASQSVKEFLWWYQQKPGKAPKLLIYMASNLQSGVPSRFSGSGSGTDFTLTISSLQPEDFATYYCQQKFKLPRTFGQGTKVEIK
notes: also called TAR1-5-19CH d3CK
- IC50 (human TNFα [1]): ~3 nM

B9: TAR1-5-19 d6 (other)
chain: DIQMTQSPSSLSASVGDRVTITCRASQSIDSYLHWYQQKPGKAPKLLIYSASELQSGVPSRFSGSGSGTDFTLTISSLQPEDFATYYCQQVVWRPFTFGQGTKVEIKRGGGGSGGGGSGGGGSGGGGSGGGGSGGGGSGGGGSDIQMTQSPSSLSASVGDRVTITCRASQSIYDALEWYQQKPGKAPKLLIYTASRLQSGVPSRFSGSGSGTDFTLTISSLQPEDFATYYCQQVMQRPVTFGQGTKVEIK
- IC50 (human TNFα [3]): ~10 nM

B10: TAR1-5d5 (other)
chain: DIQMTQSPSSLSASVGDRVTITCRASQSIFMNLLWYQQKPGKAPKLLIYNASVLQSGVPSRFSGSGSGTDFTLTISSLQPEDFATYYCQQVVWRPFTFGQGTKVEIKRGGGGSGGGGSGGGGSGGGGSGGGGSDIQMTQSPSSLSASVGDRVTITCRASQSIYDALEWYQQKPGKAPKLLIYTASRLQSGVPSRFSGSGSGTDFTLTISSLQPEDFATYYCQQVMQRPVTFGQGTKVEIK
notes: FPLC purified large dimeric species; also called dimer 5
- IC50 (human TNFα [2]): ~200 nM

B13: TAR1-5-19 cys hinge (other)
chain: DIQMTQSPSSLSASVGDRVTITCRASQSIDSYLHWYQQKPGKAPKLLIYSASELQSGVPSRFSGSGSGTDFTLTISSLQPEDFATYYCQQVVWRPFTFGQGTKVEIKREPKSGDKTHFCPPCP
notes: also called cysteine hinge linker format; hinge dimer
- IC50 (human TNFα [4]): ~2 nM

B14: TAR1-5d1 (other)
chain: DIQMTQSPSSLSASVGDRVTITCRASQSIFMNLLWYQQKPGKAPKLLIYNASVLQSGVPSRFSGSGSGTDFTLTISSLQPEDFATYYCQQVVWRPFTFGQGTKVEIKRGGGGSGGGGSGGGGSDIQMTQSPSSLSASVGDRVTITCRASQSIYDALEWYQQKPGKAPKLLIYTASRLQSGVPSRFSGSGSGTDFTLTISSLQPEDFATYYCQQVMQRPVTFGQGTKVEIK
notes: dAb-linker-dAb dimer; FPLC purified small dimeric species; also called dimer 1
- IC50 (human TNFα [2]): ~30 nM

B15: TAR1-5-19 d1 (other)
chain: B14 chain with F30D, M31S, N32Y, L34H, N50S, V53E
- IC50 (human TNFα [3]): ~15 nM

B16: TAR1-5-19 3U homodimer (other)
chain: DIQMTQSPSSLSASVGDRVTITCRASQSIDSYLHWYQQKPGKAPKLLIYSASELQSGVPSRFSGSGSGTDFTLTISSLQPEDFATYYCQQVVWRPFTFGQGTKVEIKRGGGGSGGGGSGGGGSDIQMTQSPSSLSASVGDRVTITCRASQSIDSYLHWYQQKPGKAPKLLIYSASELQSGVPSRFSGSGSGTDFTLTISSLQPEDFATYYCQQVVWRPFTFGQGTKVEIKR
notes: also called TAR1-5-19 homodimer with (Gly4Ser)3 linker
- IC50 (human TNFα [4]): ~20 nM
- CA (cell assay) ND50 (human TNFα [5]): ~30 nM

B17: TAR1-5-19 7U homodimer (other)
chain: DIQMTQSPSSLSASVGDRVTITCRASQSIDSYLHWYQQKPGKAPKLLIYSASELQSGVPSRFSGSGSGTDFTLTISSLQPEDFATYYCQQVVWRPFTFGQGTKVEIKRGGGGSGGGGSGGGGSGGGGSGGGGSGGGGSGGGGSDIQMTQSPSSLSASVGDRVTITCRASQSIDSYLHWYQQKPGKAPKLLIYSASELQSGVPSRFSGSGSGTDFTLTISSLQPEDFATYYCQQVVWRPFTFGQGTKVEIKR
notes: also called TAR1-5-19 homodimer with (Gly4Ser)7 linker
- IC50 (human TNFα [4]): ~10 nM
- CA (cell assay) ND50 (human TNFα [5]): ~15 nM

B18: TAR1-5-19 5U homodimer (other)
chain: DIQMTQSPSSLSASVGDRVTITCRASQSIDSYLHWYQQKPGKAPKLLIYSASELQSGVPSRFSGSGSGTDFTLTISSLQPEDFATYYCQQVVWRPFTFGQGTKVEIKRGGGGSGGGGSGGGGSGGGGSGGGGSDIQMTQSPSSLSASVGDRVTITCRASQSIDSYLHWYQQKPGKAPKLLIYSASELQSGVPSRFSGSGSGTDFTLTISSLQPEDFATYYCQQVVWRPFTFGQGTKVEIKR
notes: also called TAR1-5-19 homodimer with (Gly4Ser)5 linker
- IC50 (human TNFα [4]): ~2 nM
- CA (cell assay) ND50 (human TNFα [5]): ~3 nM

B20: TAR1-5-19, MSA16 cys bonded heterodimer (bispecific antibody, V domains shown)
V domain 1: DIQMTQSPSSLSASVGDRVTITCRASQSIDSYLHWYQQKPGKAPKLLIYSASELQSGVPSRFSGSGSGTDFTLTISSLQPEDFATYYCQQVVWRPFTFGQGTKVEIKR
V domain 2: DIQMTQSPSSLSASVGDRVTITCRASQSIIKHLKWYQQKPGKAPKLLIYGASRLQSGVPSRFSGSGSGTDFTLTISSLQPEDFATYYCQQGARWPQTFGQGTKVEIKR
modifications: C-terminal Cys disulphide bonded to the C-terminal Cys of the MSA16 chain ; chain 1 pos 109 Cys and chain 2 pos 109 Cys are joined by an intermolecular disulphide bond (chemical coupling via dithiodipyridine); no tags
notes: two Vκ dAbs joined by a disulphide bond; separated from monomers by cation exchange; also called disulphide bonded heterodimer of TAR1-5-19 dAb and MSA16 dAb; heterodimeric species
- IC50 (human TNFα [6]): ~18 nM

Continued, values first:

- binding result (mouse serum albumin): binds
B1: anti-serum albumin Vκ dAb clones 30, 35 (other)
VL: B3 V domain 1 with D30R, S31R, H34K, S50Q, E53V, V91G, V92L, W93Y, R94P, F96I

- IC50 (human TNFα [1]): ~6 nM
B2: dAb1 CH/TAR1-5-19CK (Fab, V domains shown)
V domain 1: B3 V domain 1 with D30Y, S31D, Y32A, H34E, S50T, E53R, V92M, W93Q, F96V
V domain 2: B3 V domain 1
notes: also called TAR1-5-19CK d1CH

- IC50 (human TNFα [1]): ~100 nM
B4: dAb3CH/TAR1-5CK (Fab, V domains shown)
V domain 1: B7 V domain 2
V domain 2: B3 V domain 1 with D30F, S31M, Y32N, H34L, S50N, E53V
notes: also called TAR1-5CK d3CH

- IC50 (human TNFα [1]): ~90 nM
B5: TAR1-5CH/dAb1 CK (Fab, V domains shown)
V domain 1: B3 V domain 1 with D30F, S31M, Y32N, H34L, S50N, E53V
V domain 2: B3 V domain 1 with D30Y, S31D, Y32A, H34E, S50T, E53R, V92M, W93Q, F96V

- binding result (mouse serum albumin): binds
B6: anti-serum albumin Vκ dAb clones 46, 47, 52, 56 (other)
VL: B3 V domain 1 with D30F, S31K, Y32S, H34K, S50N, E53Y, W93Y, R94W, F96V
notes: same printed CDRs as clone 55

- IC50 (human TNFα [2]): ~100 nM
B8: TAR1-5d6 (other)
chain: B9 chain with D30F, S31M, Y32N, H34L, S50N, E53V
notes: FPLC purified large dimeric species; also called dimer 6

- IC50 (human TNFα [2]): ~3 nM
B11: TAR1-5d4 (other)
chain: DIQMTQSPSSLSASVGDRVTITCRASQSIFMNLLWYQQKPGKAPKLLIYNASVLQSGVPSRFSGSGSGTDFTLTISSLQPEDFATYYCQQVVWRPFTFGQGTKVEIKRGGGGSGGGGSGGGGSGGGGSGGGGSDIQMTQSPSSLSASVGDRVTITCRASQSVKEFLWWYQQKPGKAPKLLIYMASNLQSGVPSRFSGSGSGTDFTLTISSLQPEDFATYYCQQKFKLPRTFGQGTKVEIK
notes: FPLC purified small dimeric species; also called TAR1-5 dimer 4

- IC50 (human TNFα [3]): ~8 nM
B12: TAR1-5-19d5 (other)
scFv: B10 chain with F30D, M31S, N32Y, L34H, N50S, V53E

- IC50 (human TNFα [6]): 0.3 to 0.8 nM
B19: TAR1-5-19CYS dimer (other)
chain: DIQMTQSPSSLSASVGDRVTITCRASQSIDSYLHWYQQKPGKAPKLLIYSASELQSGVPSRFSGSGSGTDFTLTISSLQPEDFATYYCQQVVWRPFTFGQGTKVEIKRC
modifications: disulphide between the C-terminal Cys of the two chains
notes: separated from monomer by cation exchange; also called the dimer
